Measured values as given in patent US20190309069A1 (SHANGHAI HENGRUI PHARMACEUTICAL, published 2019).

T1: mouse PD1-Fc (Beijing Sino Biological Inc.) (mouse, UniProt Q02242 25-167, limits assumed)
T1 construct: Bought reagent; also called murine PD-1; not shown: Fc part
T1 sequence (looked up): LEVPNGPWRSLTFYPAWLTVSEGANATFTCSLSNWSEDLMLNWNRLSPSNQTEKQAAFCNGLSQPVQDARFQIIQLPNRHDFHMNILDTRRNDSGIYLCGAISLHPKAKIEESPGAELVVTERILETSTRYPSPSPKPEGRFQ

T2: human CTLA4 (Beijing Sino Biological Inc.) (human, UniProt P16410 36-162, limits assumed)
T2 construct: Bought reagent
T2 sequence (looked up): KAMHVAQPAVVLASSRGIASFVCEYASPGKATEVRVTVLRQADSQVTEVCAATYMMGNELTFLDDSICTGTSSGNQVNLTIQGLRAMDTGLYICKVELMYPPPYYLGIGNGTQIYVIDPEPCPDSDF

T3: human ICOS/Fc (Beijing Sino Biological Inc.) (human, UniProt Q9Y6W8 21-141, limits assumed)
T3 construct: Bought reagent; not shown: Fc part
T3 sequence (looked up): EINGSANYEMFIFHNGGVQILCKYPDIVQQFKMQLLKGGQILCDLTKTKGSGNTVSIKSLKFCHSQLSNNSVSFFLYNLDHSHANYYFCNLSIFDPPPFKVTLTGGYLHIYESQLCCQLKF


Key:
[1] = molecular target: T4, cynomolgus PD-1Fc (cynomolgus, UniProt B0LAJ3 25-170, Probably biotinylated for capture on avidin, as the human PD-1 FC was in this ELISA. Fused to an Fc that is not given.); test: ELISA, cyno PD-1Fc
T4 construct: Source and construct of the cynomolgus PD-1 Fc fusion are not described; also called cyno PD-1; not shown: Fc part of the cynomolgus PD-1Fc fusion, and any linker

[2] = molecular target: T1, mouse PD1-Fc (Beijing Sino Biological …); test: selectivity ELISA, protein coated at 1 µg/ml
Experimental: (§1) To detect the specific binding activity of PD-1 antibody to other proteins of the PD-1 family, human CTLA4 and human CD28 were used for binding assays. Meanwhile, the PD-1 of mice was also used for binding assays so as to determine the diversity of PD-1 antibody for different species other than human/monkey.
(§2) Selectively binding proteins: human PD-1, human ICOS, human CTLA4, human CD28 and mouse PD-1, (Beijing Sino Biological Inc.), were respectively diluted to 1 μg/ml with PBS buffer, pipetted into a 96-well plate at 100 μl/well and standed for 16 h-20 h at 4° C. The 96-well plate was washed once with PBST (PH7.4 PBS, containing 0.05% tweeen20) after PBS buffer was removed, then the plate was incubated and blocked for 1 h at room temperature with 120 μl/well PBST/1% milk. After removal of the blocking solution, the plate was washed with PBST buffer for 3 times, followed by addition of the test PD-1 antibody, and incubated for 1.5 h at room temperature. After removal of the reaction system, the plate was washed for 3 times with PBST, followed by addition of 100 μl/well HRP-labeled anti-murine secondary antibody (The Jackson Laboratory) which was diluted by PBST/1% milk, and incubated for 1 h at room temperature. The plate was washed for 3 times with PBST, followed by addition of 100 μl/well TMB, and incubated for 5-10 min at room temperature. Then the reaction was terminated with addition of 100 μl/well 1M H₂SO₄. The absorbance value at 450 nm was read on the NOVOStar microplate reader.

[3] = molecular target: T2, human CTLA4 (Beijing Sino Biological …); test: selectivity ELISA, protein coated at 1 µg/ml
Experimental: as §1, §2

[4] = molecular target: T3, human ICOS/Fc (Beijing Sino Biological …); test: selectivity ELISA, protein coated at 1 µg/ml
Experimental: as §1, §2

[5] = molecular target: T5, human CD28 (Beijing Sino Biological Inc.) (human, UniProt P10747 19-152); test: selectivity ELISA, protein coated at 1 µg/ml
T5 construct: Bought reagent
Experimental: as §1, §2

[6] = molecular target: T6, human PD1-FC (Beijing Sino Biological Inc.) (human, UniProt Q15116 25-167, limits assumed); test: selectivity ELISA, protein coated at 1 µg/ml
T6 construct: not shown: Fc part
Experimental: as §1, §2

[7] = molecular target: T1, mouse PD1-Fc (Beijing Sino Biological …); test: ELISA, protein coated at 1 µg/ml
Experimental: as §1, §2

[8] = molecular target: T2, human CTLA4 (Beijing Sino Biological …); test: ELISA, protein coated at 1 µg/ml
Experimental: as §1, §2

[9] = molecular target: T3, human ICOS/Fc (Beijing Sino Biological …); test: ELISA, protein coated at 1 µg/ml
Experimental: as §1, §2

[10] = molecular target: T5, human CD28 (Beijing Sino Biological …); test: ELISA, protein coated at 1 µg/ml
Experimental: as §1, §2

[11] = molecular target: T7, recombinant PD-1 extracellular domain Fc fusion protein (PD-1 Fc) (human, biotin label (sites not given) in the ELISA binding assay; unlabelled when coated in the ligand blocking assay); test: ELISA, biotinylated PD-1 Fc captured on avidin
T7 construct: also called human PD-1Fc; human PD-1
Experimental: (§3) The PD-1 antibody blocks signaling pathway of PD-1 and its ligand by binding to PD-1 extracellular domain. In vitro ELISA assay is used to detect the binding property of the PD-1 antibody. Biotinylated PD-1 extracellular domain FC fusion protein (PD-1 FC) is coated onto 96-well plates by binding to neutralization avidin. Signal intensity after the addition of the antibody is used to determine the binding property of the antibody and PD-1.
Neutralization avidin (binding to biotin) was diluted to 1 μl/ml with PBS buffer, pipetted into a 96-well plate with at 100 μl/well and standed for 16 h-20 h at 4° C. The 96-well plate was washed once with PBST (PH7.4 PBS, containing 0.05% tweeen20) after PBS buffer was removed, then the plate was incubated and blocked for 1 h at room temperature with addition of 120 μl/well PBST/1% milk. After removal of the blocking solution, the plate was washed with PBST buffer, followed by addition of 1 μg/ml biotin-labeled PD1-FC which was diluted by PBST/1% milk, and incubated for 1 h at room temperature. After removal of the blocking solution, the plate was washed with PBST buffer for 3 times, followed by addition of the test PD-1 antibody which was diluted to a suitable concentration by PBST/1% milk, and incubated for 1.5 h at room temperature. […] The absorbance value at 450 nm was read on NOVOStar microplate reader; the ELISA binding EC₅₀ value was calculated.

[12] = molecular target: T7, recombinant PD-1 extracellular domain …; test: ligand binding blocking ELISA: PD-1-FC coated, competitor biotin-labeled PD-L1
Experimental: (§4) In this experiment, a 96-well plate was coated with a PD-1 protein with the extracellular domain fused with FC (PD-1-FC), and incubated with the test PD-1 antibody; later biotin-labeled PD-L1 was added for incubation. After washing the plate, the binding amount of biotin-labeled PD-L1 was detected; the blocking IC₅₀ value of PD-1 antibody for ligand PD-L1 binding was calculated.
PD-1-FC was diluted to 1 μg/ml with PH 9.6 CB buffer (1.59 g Na₂CO₃ and 2.93 g NaHCO₃ were dissolved in 1 L of distilled water), pipetted into a 96-well plate at 100 μl/well and standed for 16 h-20 h at 4° C. The 96-well plate was washed once with PBST (PH7.4 PBS, containing 0.05% tweeen20) after PBS buffer was removed, then the plate was incubated and blocked for 1 h at room temperature with 120 μl/well PBST/1% milk. After removal of the blocking solution, the plate was washed with PBST buffer once, followed by addition of 90 μl of test PD-1 antibody which was diluted to a suitable concentration with sample diluents (PH7.4 PBS containing 5% BSA, 0.05% Tween20), and incubated for 1 h at 4° C. […] The absorbance value at 450 nm was read on the NOVOStar microplate reader; the blocking IC₅₀ value of PD-1 for ligand PD-L1 binding was calculated.

[13] = molecular target: T8, PD-1 His protein (Beijing Sino Biological Inc.) (UniProt Q15116 25-167, limits assumed); test: Biacore SPR, antibody coupled to CM5 chip, PD-1 His as analyte, 1:1 model
T8 construct: Bought reagent, analyte in the Biacore assay; not shown: His tag
Experimental: (§5) According to the instruction of a kit provided by Biacore, the test PD-1 antibody of the present invention was covalently linked to CM5 (GE) chip using a standard amino coupling method. Then a series of gradient concentrations of PD-1 His protein (Beijing Sino Biological Inc.), which were diluted in the same buffer, were loaded into each cycle successively. After that, the samples were regenerated with regenerated reagent in the kit. The antigen-antibody binding kinetics was tracked for 3 minutes and the dissociation kinetics was tracked for 10 minutes. The data obtained was analyzed by GE's BIAevaluation software using 1:1 (Langmuir) binding model.

[14] = molecular target: T7, recombinant PD-1 extracellular domain …; test: ligand binding blocking ELISA as in Example 2, competitor biotin-labeled PD-L1
Experimental: as §4
PD-1-FC was diluted to 1 μg/ml with PH 9.6 CB buffer (1.59 g Na₂CO₃ and 2.93 g NaHCO₃ were dissolved in 1 L of distilled water), pipetted into a 96-well plate at 100 μl/well and standed for 16 h-20 h at 4° C. The 96-well plate was washed once with PBST (PH7.4 PBS, containing 0.05% tweeen20) after PBS buffer was removed, then the plate was incubated and blocked for 1 h at room temperature with 120 μl/well PBST/1% milk. After removal of the blocking solution, the plate was washed with PBST buffer once, followed by addition of 90 μl of test PD-1 antibody which was diluted to a suitable concentration with sample diluents (PH7.4 PBS containing 5% BSA, 0.05% Tween20), and incubated for 1 h at 4° C. Then 10× concentrations of biotin-labeled PD-L1 (Beijing Sino Biological Inc.) (10 μg/ml) was added to the plate at 10 μl/well, oscillated and mixed by an oscillator, and incubated at 37° C. for 1 h. After removal of the reaction system, the plate was washed for 6 times with PBST buffer, followed by addition of 100 ul/well Streptavidin-Peroxidase Polymer which was diluted by PBST at a ratio of 1:400, and incubated under oscillation for 50 min at room temperature. After being washed with PBST for 6 times, the plate was added with 100 μl/well TMB, and incubated for 5-10 min at room temperature. Then the reaction was terminated with addition of 100 μl/well 1M H₂SO₄. The absorbance value at 450 nm was read on the NOVOStar microplate reader; the blocking IC₅₀ value of PD-1 for ligand PD-L1 binding was calculated.
(§6) Humanized antibodies were subjected to ELISA binding assay (method is the same as that of Example 2), ligand binding blocking assay (method is the same as that of Example 2), and affinity kinetics experiment (method is the same as that of Example 5) in vitro.

[15] = molecular target: T7, recombinant PD-1 extracellular domain …; test: ELISA as in Example 2, biotinylated PD-1 Fc captured on avidin
Experimental: as §3
Neutralization avidin (binding to biotin) was diluted to 1 μl/ml with PBS buffer, pipetted into a 96-well plate with at 100 μl/well and standed for 16 h-20 h at 4° C. The 96-well plate was washed once with PBST (PH7.4 PBS, containing 0.05% tweeen20) after PBS buffer was removed, then the plate was incubated and blocked for 1 h at room temperature with addition of 120 μl/well PBST/1% milk. After removal of the blocking solution, the plate was washed with PBST buffer, followed by addition of 1 μg/ml biotin-labeled PD1-FC which was diluted by PBST/1% milk, and incubated for 1 h at room temperature. After removal of the blocking solution, the plate was washed with PBST buffer for 3 times, followed by addition of the test PD-1 antibody which was diluted to a suitable concentration by PBST/1% milk, and incubated for 1.5 h at room temperature. After removal of reaction system, the plate was washed for 3 times with PBST buffer, followed by addition of 100 μl/well HRP-labeled anti-murine secondary antibody (The Jackson Laboratory) which was diluted by PBST/1% milk, and incubated for 1 h at room temperature. After being washed with PBST for three times, the plate was added with 100 μl/well TMB, and incubated for 5-10 min at room temperature. Then the reaction was terminated with addition of 100μ/well 1M H₂SO₄. The absorbance value at 450 nm was read on NOVOStar microplate reader; the ELISA binding EC₅₀ value was calculated.
as §6

[16] = molecular target: T8, PD-1 His protein (Beijing Sino …); test: Biacore SPR as in Example 5, PD-1 His as analyte
Experimental: as §5, §6

EC50 [1]	absorbance at 450 nm [2]	absorbance at 450 nm [3]	absorbance at 450 nm [4]	absorbance at 450 nm [5]	absorbance at 450 nm [6]	binding result [7]	binding result [8]	binding result [9]	binding result [10]	EC50 [11]	IC50 [12]	Kd [13]	koff [13]	kon [13]	IC50 [14]	EC50 [15]	Kd [16]	Binder
0.27 nM	0.07	0.17	0.15	0.12	2.64	no binding	no binding	no binding	no binding	0.25 nM	1.13 nM	3.57 nM	0.000377 s⁻¹	106000 M⁻¹ s⁻¹				murine monoclonal antibody mAb005 (antibody, V domains shown, Murine monoclonal antibody from a hybridoma; also called PD-1 antibody mAb005) VH: EVMLVESGGGLVKPGGSLKLSCAASGFTFSSYMMSWVRQTPEKRLEWVATISGGGANTYYPDSVKGRFTISRDNAKNTLYLQMSSLRSEDTALYYCARQLYYFDYWGQGTTLTVSS VL: DIQMTQSPASQSASLGEGVTITCLASQTIGTWLTWYQQKPGKSPQLLIYTATSLADGVPSRFSGSGSGTKFSFKISSLQAEDFVTYYCQQVYSIPWTFGGGTKLEIK
															1.27 nM	0.11 nM	2.79 nM	humanized antibody H005-1 (antibody, human IgG4 S228P, kappa, F234A L235A, V domains shown, CDR graft of mAb005 on IgHV3-7/JH6 and IGKV1-39/JK4, IgG4 constant region; expressed in HEK293 cells; also called PD-1 antibody H005-1) VH: EVQLVESGGGLVQPGGSLRLSCAASGFTFSSYMMSWVRQAPGKGLEWVATISGGGANTYYPDSVKGRFTISRDNAKNSLYLQMNSLRAEDTAVYYCARQLYYFDYWGQGTTVTVSS VL: DIQMTQSPSSLSASVGDRVTITCLASQTIGTWLTWYQQKPGKAPKLLIYTATSLADGVPSRFSGSGSGTDFTLTISSLQPEDFATYYCQQVYSIPWTFGGGTKVEIKR
